# Experiments:
# [1] = molecular target: T1, cynomolgus monkey PVRIG (Novoprotein, Cat NO. C09B) (cynomolgus monkey, UniProt A0A2K5WVV8 41-171); test: ELISA, coated cynomolgus monkey PVRIG
# T1 construct: bought reagent; also called cynomolgus monkey PVRIG recombinant protein
# T1 sequence: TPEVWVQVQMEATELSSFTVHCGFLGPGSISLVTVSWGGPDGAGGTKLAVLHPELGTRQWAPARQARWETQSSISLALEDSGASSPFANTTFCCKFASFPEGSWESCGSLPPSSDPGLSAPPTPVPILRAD
# [2] = molecular target: T2, Fusion protein of extracellular domain of human TIGIT and His-tag (human TIGIT ECD-his) (human); test: BIAcore; KD ratio to TIGIT-CHI-002
# T2 chain: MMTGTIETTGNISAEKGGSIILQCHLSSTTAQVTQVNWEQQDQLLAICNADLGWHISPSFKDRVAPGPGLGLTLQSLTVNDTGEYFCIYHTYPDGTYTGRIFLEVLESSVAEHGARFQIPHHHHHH
# [3] = molecular target: T2, Fusion protein of extracellular domain …; test: BIAcore; KD ratio, by the numbers to TIGIT-005-H2L1 of r33
# [4] = molecular target: T3, full-length human TIGIT on CHO-K1 cells (CHO-K1 human TIGIT) (human, UniProt Q495A1 22-244); test: FACS, medium expression strain
# T3 construct: NCBI XP_024309156.1; entry includes the signal peptide; also called high expression strain 1D2; medium expression strain 2D10
# T3 sequence: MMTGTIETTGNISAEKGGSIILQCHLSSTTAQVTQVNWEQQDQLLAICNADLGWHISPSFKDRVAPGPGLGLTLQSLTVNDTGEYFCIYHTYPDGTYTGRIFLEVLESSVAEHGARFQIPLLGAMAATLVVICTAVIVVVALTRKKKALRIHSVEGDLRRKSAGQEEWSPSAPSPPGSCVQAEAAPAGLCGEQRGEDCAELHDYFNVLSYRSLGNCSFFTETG
# Experimental: The collected cells were washed once with PBS (Hyclone, CAT #SH30256), resuspended to 2×10⁵/50 μL with 1% BSA-PBS. The antibodies were diluted to 80 nM with 1% BSA-PBS (diluted by 3-fold serial dilution for 12 concentration points). The 50 μL cells were then mixed with 50 μL diluted antibodies, and then incubated at 4° C. for 60 minutes. […] After washing twice with PBS, the cell samples were resuspended with 1% BSA-PBS, 100 μL/well and then analyzed by flow cytometry (BD, Canto II). […] [0298] (c) The effect of anti-TIGIT chimeric antibodies blocking the interaction between Bio-CD155-His and CHO-K1 human TIGIT high expression cell strains detected by FACS
# [5] = molecular target: T4, cynomolgus monkey TIGIT ECD-mFc (extracellular domain of cynomolgus monkey TIGIT and mouse IgG2a Fc fragment) (cynomolgus monkey); test: ELISA
# T4 construct: entry includes the signal peptide, limits not readable here
# Experimental: (§1) After discarding the coating solution, the plate was added with 5% skim milk powder (Sangon Biotech, CAT #A600669-0250)-PBS, 250 μL/well, and incubated at 37° C. for 2-4 hours. […] The enzyme-labeled plate was then washed with 0.05% Tween 20-PBS for 3 times on the Microplate Washer, added with tested antibodies diluted to 13 nM with 1% BSA (diluted by 3-fold serial dilution for 12 concentration points), 50 μL/well, and incubated at 37° C. for 1.5-2 hours. The plate was washed with 0.05% Tween 20-PBS for 3 times on the Microplate Washer, then added with HRP enzyme-labeled antibodies (Merck, CAT #AP113P) diluted with 1% BSA (Sangon Biotech, CAT #A500023-0100)-PBS at a dilution ratio of 1:5000, 50 μL/well, and incubated at 37° C. for 1 hour. After washing 3 times with 0.05% Tween 20-PBS on the Microplate Washer, the plate was added with TMB chromogenic solution (KPL, CAT #52-00-03), 50 μL/well, and incubated at room temperature for 7-10 minutes. 1M HCL, 50 μL/well, was then added into the plate to terminate the reaction, and the OD450 nm was read by a microplate reader (Biotek, Powerwave HT). […] (b) The binding activity of anti-TIGIT chimeric antibodies to CHO-K1 human TIGIT (cells with high, medium and low expression levels) and CHO-KI cynomolgus monkey TIGIT detected by FACS.
# [6] = molecular target: T5, human TIGIT ECD-mFc (fusion protein of extracellular domain of human TIGIT and mouse IgG2a Fc fragment) (human); test: ELISA
# T5 chain: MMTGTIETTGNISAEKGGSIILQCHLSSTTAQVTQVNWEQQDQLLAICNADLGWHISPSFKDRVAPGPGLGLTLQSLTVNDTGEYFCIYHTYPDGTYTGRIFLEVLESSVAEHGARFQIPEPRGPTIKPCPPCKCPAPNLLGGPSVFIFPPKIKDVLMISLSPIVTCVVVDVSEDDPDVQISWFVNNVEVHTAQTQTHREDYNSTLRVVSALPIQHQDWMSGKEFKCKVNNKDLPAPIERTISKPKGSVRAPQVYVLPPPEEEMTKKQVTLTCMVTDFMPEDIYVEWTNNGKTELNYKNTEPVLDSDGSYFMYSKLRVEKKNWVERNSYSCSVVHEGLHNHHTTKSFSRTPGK
# Experimental: as §1
binder,measurement,setting,value
"SRF813-hIgG1 (antibody, V domains shown, human IgG1 format by its name) VH: QVQLVQSGAEVKKPGSSVKVSCKASGGTFSSAAISWVRQAPGQGLEWMGNIIPIVGIANYAQKFQGRVTITADESTSTAYMELSSLRSEDTAVYYCARDTGRGYTRHFWFDPWGQGTLVTVSS VL: DIQMTQSPSSLSASVGDRVTITCRASQSISSYLNWYQQKPGKAPKLLIYAASSLQSGVPSRFSGSGSGTDFTLTISSLQPEDFATYYCQQSDILYTFGGGTKVEIK",EC50 (read off the curve),[1],~0.06 nM
"TIGIT-002-H4L3 (antibody, V domains shown, Humanized anti-TIGIT antibody) VH: EVQLQESGPGLVKPSETLSLTCAVSGYSITSDSWNWIRQPPGKKLEYIGYISYSGNTYYNPSLKSRVTISRDTSKNQFSLKLSSVTAADTAVYYCARLDFSNYGGAVDYWGQGTTVTVSS VL: DIVMTQSPDSLAVSLGERATINCKASQNVRTAVAWYQQKPGQSPKLMIYSASYRYTGVPDRFSGSGSGTDFTLTISSLQAEDVAVYYCQQYYTTPWTFGGGTKVEIK",Fold change vs chimeric antibodies (KD),[2],1.26 fold
"TIGIT-005-H2L1d (antibody, V domains shown, Humanized anti-TIGIT antibody with NG-site mutation in VL) VH: EVQLVQSGAEVKKPGASVKVSCKASGYAFTNYLIEWVRQAPGQRLEWMGVINPGSGGTNYKEKFKGRVTITADKSSSTAYMELSSLRSEDTAVYYCARGEYFFFDYWGQGTTVTVSS VL: DIVMTQSPDSLAVSLGERATINCKASQHVSNAVAWYQHKPGQSPKLLIYSASYRYTGVPDRFSGSGSGTDFTLTISSLQAEDVAVYYCQQHYNTPHTFGGGTKVEIK",Fold change vs chimeric antibodies (KD),[3],1.21 fold
"RG6058-hIgG1 (antibody, V domains shown, human IgG1 format by its name; also called Roche RG6058; control antibody RG6058) VH: EVQLQQSGPGLVKPSQTLSLTCAISGDSVSSNSAAWNWIRQSPSRGLEWLGKTYYRFKWYSDYAVSVKGRITINPDTSKNQFSLQLNSVTPEDTAVFYCTRESTTYDLLAGPFDYWGQGTLVTVSS VL: not shown",EC50,[4],0.616 nM
same,EC50,[5],0.0158 nM
same,EC50,[6],0.0151 nM

# Source: patent US20240343803A1 (SHANDONG SIMCERE BIOPHARMACEUTICAL, published 2024)
